Laboratory results reported in patent US20260042849.

What was measured:
[1] = tested on: internally quenched peptide probe with CM 7055 (PHGL, SEQ ID NO: 10)
[2] = tested on: internally quenched peptide probe with CM 7047 (PYGL, SEQ ID NO: 103)
[3] = tested on: internally quenched peptide probe with CM RSPWGL (SEQ ID NO: 182)
[4] = tested on: internally quenched peptide probe with CM 7049 (PFGL, SEQ ID NO: 104)
[5] = tested on: internally quenched peptide probe with CM 7053 (PQGL, SEQ ID NO: 9)
[6] = tested on: internally quenched peptide probe with CM 7056 (PEGL, SEQ ID NO: 11)
[7] = tested on: internally quenched peptide probe with CM PWGLRS (SEQ ID NO: 181)
[8] = tested on: internally quenched peptide probe with CM PMGLKS (SEQ ID NO: 5)
[9] = tested on: internally quenched peptide probe with CM PMGLK (SEQ ID NO: 64)
[10] = tested on: internally quenched peptide probe with CM APMGLKH (SEQ ID NO: 7)
[11] = tested on: internally quenched peptide probe with CM 7050 (PRGL, SEQ ID NO: 105)
[12] = tested on: internally quenched peptide probe with CM 7051 (PMGL, SEQ ID NO: 106)
[13] = tested on: internally quenched peptide probe with CM 7054 (PKGL, SEQ ID NO: 108)
[14] = tested on: internally quenched peptide probe with CM 7052 (PLGL, SEQ ID NO: 107)
[15] = tested on: internally quenched peptide probe with CM 7041 (PWGL, SEQ ID NO: 100)

human recombinant MMP9 (R&D Systems, catalog No: 911-MP), sequence (chain, as listed by the source): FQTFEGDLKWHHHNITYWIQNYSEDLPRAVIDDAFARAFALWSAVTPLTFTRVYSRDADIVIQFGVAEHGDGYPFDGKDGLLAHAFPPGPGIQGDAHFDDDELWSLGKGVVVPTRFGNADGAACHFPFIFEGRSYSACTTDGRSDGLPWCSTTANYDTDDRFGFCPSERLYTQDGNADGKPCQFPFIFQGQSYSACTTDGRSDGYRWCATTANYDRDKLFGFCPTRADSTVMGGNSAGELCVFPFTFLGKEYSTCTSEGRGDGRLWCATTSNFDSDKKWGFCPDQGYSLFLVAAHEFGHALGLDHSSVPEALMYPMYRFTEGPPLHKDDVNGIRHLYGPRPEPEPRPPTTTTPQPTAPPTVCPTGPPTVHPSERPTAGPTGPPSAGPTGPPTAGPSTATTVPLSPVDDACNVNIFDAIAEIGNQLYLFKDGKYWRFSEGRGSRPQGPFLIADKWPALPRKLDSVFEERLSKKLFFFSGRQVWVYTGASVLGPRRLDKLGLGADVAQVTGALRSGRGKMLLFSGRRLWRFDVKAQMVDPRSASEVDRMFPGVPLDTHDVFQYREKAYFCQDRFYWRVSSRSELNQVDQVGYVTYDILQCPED

For “human recombinant MMP9 (R&D Systems, catalog No: 911-MP)”, the “stated: cleaved (kcat/Km, M-1s-1, bar on a log axis)” value [1] was “PHGL, MMP9 bar ends between 1x10^3 and 1x10^4”, the “kcat/KM (M^-1 s^-1)” value [2] was “greater than 5×10^2 M^-1 s^-1” and the “stated: cleaved (kcat/Km, M-1s-1, bar on a log axis)” value [2] was “PYGL, MMP9 bar ends at about the 1x10^4 tick”. For the same substance, the Probe Cleavage (kcat/KM) [3] was 870000 M⁻¹ s⁻¹, the Probe Cleavage (pM/s) [3] was 25500 pM/s and the “kcat/KM (M^-1 s^-1)” value [4] was “greater than 5×10^2 M^-1 s^-1”. The “stated: cleaved (kcat/Km, M-1s-1, bar on a log axis)” value [4] was “PFGL, MMP9 bar ends at about the 1x10^4 tick”, the “stated: cleaved (kcat/Km, M-1s-1, bar on a log axis)” value [5] was “PQGL, MMP9 bar ends between 1x10^3 and 1x10^4” and the “kcat/KM (M^-1 s^-1)” value [6] was “greater than 5×10^2 M^-1 s^-1”. For the same substance, the “stated: cleaved (kcat/Km, M-1s-1, bar on a log axis)” value [6] was “PEGL, MMP9 bar ends between 1x10^2 and 1x10^3, just under the 1x10^3 tick”, the Probe Cleavage (kcat/KM) [7] was 150000 M⁻¹ s⁻¹ and the Probe Cleavage (pM/s) [7] was 3830 pM/s. It also gave a Probe Cleavage (kcat/KM) [8] of 3.1e+06 M⁻¹ s⁻¹, a Probe Cleavage (pM/s) [8] of 133000 pM/s and a Probe Cleavage (kcat/KM) [9] of 140000 M⁻¹ s⁻¹. The Probe Cleavage (pM/s) [9] was 6080 pM/s, the Probe Cleavage (kcat/KM) [10] was 2.8e+06 M⁻¹ s⁻¹ and the Probe Cleavage (pM/s) [10] was 115000 pM/s. For the same substance, the “stated: cleaved (kcat/Km, M-1s-1, bar on a log axis)” value [11] was “PRGL, MMP9 bar ends between 1x10^4 and 1x10^5”, the “stated: cleaved (kcat/Km, M-1s-1, bar on a log axis)” value [12] was “PMGL, MMP9 bar ends between 1x10^3 and 1x10^4, close under 1x10^4” and the “stated: cleaved (kcat/Km, M-1s-1, bar on a log axis)” value [13] was “PKGL, MMP9 bar ends just above the 1x10^4 tick”. For the same substance, the “stated: cleaved (kcat/Km, M-1s-1, bar on a log axis)” value [14] was “PLGL, MMP9 bar ends between 1x10^4 and 1x10^5” and the “stated: cleaved (kcat/Km, M-1s-1, bar on a log axis)” value [15] was “PWGL, MMP9 bar ends just above the 1x10^4 tick”.
